In patent publication US12528864:
Residue numbers refer to the chain shown, from its start. Each block holds one binder with its values, some of them ahead of it.

Target: human CD96, native, on primary human T cells (human) (UniProt P40200)
Experiment: flow cytometry on primary human CD3+ T cells

EC50: 0.05 nM
B1: 42Y073-86F08-3 (antibody, V domains shown)
VH: QVQLVQSGAEVKKPGSSVKVSCKASGGTFVNYAISWVRQAPGQGLEWMGGIIPALGTANYAQKFQGRVTITADESTSTAYMELSSLRSEDTAVYYCARGAGYYGDKDPMDVWGQGTTVTVSS
VL: DIQLTQSPSSLSASVGDRVTITCRASQSISSYLNWYQQKPGKAPKLLIYAASSLQSGVPSRFSGSGSGTDFTLTISSLQPEDFATYYCQQVLHTITFGGGTKVEIK

EC50: 0.18 nM
B2: 42Y073-86F08-22 (antibody, V domains shown)
VH: B1 VH with S16A, G27Y, V30D, N31S, I34M, S35H, A54I, L55F, N59W
VL: B1 VL

EC50: 0.01 nM
B3: 42Y073-86F08-17 (antibody, V domains shown)
VH: B1 VH with V30R, N31E, A54V, L55F
VL: B1 VL

EC50: 0.01 nM
B4: 42Y073-86F08-4 (antibody, V domains shown)
VH: B1 VH with V30S, N31E, S35H, G50N, A54I, L55F, N59G
VL: B1 VL

EC50: 0.03 nM
B5: 42Y073-86F08-47 (antibody, V domains shown)
VH: B1 VH with V30S, N31Q, S35H, G50V, A54I, L55F, T57K
VL: B1 VL

EC50: 0.04 nM
B6: 42Y073-86F08-8 (antibody, V domains shown)
VH: B1 VH with V30W, N31L, A54Q
VL: B1 VL

EC50: 0.01 nM
B7: 42Y073-1A01-100 (antibody, V domains shown)
VH: QVQLVQSGAEVKKPGASVKVSCKASGYTFTTYRMHWVRQAPGQGLEWMGIINPSGGLTQYAQKFQGRVTMTRDTSTSTVYMELSSLRSEDTAVYYCARETAYYTTKGNWFDPWGQGTLVTVSS
VL: DIQMTQSPSSLSASVGDRVTITCRASQSISSYLNWYQQKPGKAPKLLIYAASSLQSGVPSRFSGSGSGTDFTLTISSLQPEDFATYYCQQSLYPPRTFGGGTKVEIK

EC50: 0.32 nM
B8: 42Y073-1A01-85 (antibody, V domains shown)
VH: B7 VH with T31S, R33P, L57F, Q59S, S123A
VL: B7 VL

EC50: 0.38 nM
B9: 42Y073-1A01-191 (antibody, V domains shown)
VH: B7 VH with T31K, S54Q, L57S, Q59S, S123A
VL: B7 VL

EC50: 0.05 nM
B10: 42Y073-86F04-4 (antibody, V domains shown)
VH: QVQLVQSGAEVKKPGSSVKVSCKASGGTFESEAISWVRQAPGQGLEWMGGIIPIFGRARYAQKFQGRVTITADESTSTAYMELSSLRSEDTAVYYCARLLGESGMDVWGQGTTVTVSS
VL: B7 VL with S91P, L92Y, Y93F, P94S, R96P

EC50: 0.01 nM
B11: 42Y073-1A01-103 (antibody, V domains shown)
VH: B7 VH with T31A, R33Q, S54A, L57W, Q59S
VL: B7 VL

EC50: 0.01 nM
B12: 42Y073-86F04-6 (antibody, V domains shown)
VH: B10 VH with E30S, S31G, E32H
VL: B7 VL with S91P, L92Y, Y93F, P94S, R96P

EC50: 0.09 nM
B13: 42Y073-86F04-3 (antibody, V domains shown)
VH: B10 VH with E30S, S31Y, E32N, F55M, R57T
VL: B7 VL with S91P, L92Y, Y93F, P94S, R96P

EC50: 0.05 nM
B14: 42Y073-86F04-5 (antibody, V domains shown)
VH: B10 VH with E30S, E32H, A58G, R59K
VL: B7 VL with S91P, L92Y, Y93F, P94S, R96P

EC50: 0.01 nM
B15: 42Y073-86F04-18 (antibody, V domains shown)
VH: B10 VH with E30S, E32R, F55M, R57T
VL: B7 VL with S91P, L92Y, Y93F, P94S, R96P
